Assay results reported in IntAct's records for PubMed 20890305.

B1: Merlin (Homo sapiens), P35240 (parent)
chain: MAGAIASRMSFSSLKRKQPKTFTVRIVTMDAEMEFNCEMKWKGKDLFDLVCRTLGLRETWFFGLQYTIKDTVAWLKMDKKVLDHDVSKEEPVTFHFLAKFYPENAEEELVQEITQHLFFLQVKKQILDEKIYCPPEASVLLASYAVQAKYGDYDPSVHKRGFLAQEELLPKRVINLYQMTPEMWEERITAWYAEHRGRARDEAEMEYLKIAQDLEMYGVNYFAIRNKKGTELLLGVDALGLHIYDPENRLTPKISFPWNEIRNISYSDKEFTIKPLDKKIDVFKFNSSKLRVNKLILQLCIGNHDLFMRRRKADSLEVQQMKAQAREEKARKQMERQRLAREKQMREEAERTRDELERRLLQMKEEATMANEALMRSEETADLLAEKAQITEEEAKLLAQKAAEAEQEMQRIKATAIRTEEEKRLMEQKVLEAEVLALKMAEESERRAKEADQLKQDLQEAREAERRAKQKLLEIATKPTYPPMNPIPAPLPPDIPSFNLIGDSLSFDFKDTDMKRLSMEIEKEKVEYMEKSKHLQEQLNELKTEIEALKLKERETALDILHNENSDRGGSSKHNTIKKLTLQSAKSRVAFFEEL
B2: Mitogen-activated protein kinase kinase kinase 11 (Homo sapiens), Q16584 (parent)
chain: MEPLKSLFLKSPLGSWNGSGSGGGGGGGGGRPEGSPKAAGYANPVWTALFDYEPSGQDELALRKGDRVEVLSRDAAISGDEGWWAGQVGGQVGIFPSNYVSRGGGPPPCEVASFQELRLEEVIGIGGFGKVYRGSWRGELVAVKAARQDPDEDISVTAESVRQEARLFAMLAHPNIIALKAVCLEEPNLCLVMEYAAGGPLSRALAGRRVPPHVLVNWAVQIARGMHYLHCEALVPVIHRDLKSNNILLLQPIESDDMEHKTLKITDFGLAREWHKTTQMSAAGTYAWMAPEVIKASTFSKGSDVWSFGVLLWELLTGEVPYRGIDCLAVAYGVAVNKLTLPIPSTCPEPFAQLMADCWAQDPHRRPDFASILQQLEALEAQVLREMPRDSFHSMQEGWKREIQGLFDELRAKEKELLSREEELTRAAREQRSQAEQLRRREHLLAQWELEVFERELTLLLQQVDRERPHVRRRRGTFKRSKLRARDGGERISMPLDFKHRITVQASPGLDRRRNVFEVGPGDSPTFPRFRAIQLEPAEPGQAWGRQSPRRLEDSSNGERRACWAWGPSSPKPGEAQNGRRRSRMDEATWYLDSDDSSPLGSPSTPPALNGNPPRPSLEPEEPKRPVPAERGSSSGTPKLIQRALLRGTALLASLGLGRDLQPPGGPGRERGESPTTPPTPTPAPCPTEPPPSPLICFSLKTPDSPPTPAPLLLDLGIPVGQRSAKSPRREEEPRGGTVSPPPGTSRSAPGTPGTPRSPPLGLISRPRPSPLRSRIDPWSFVSAGPRPSPLPSPQPAPRRAPWTLFPDSDPFWDSPPANPFQGGPQDCRAQTKDMGAQAPWVPEAGP

Variants of: B1
Settings: with MAP3K11, Q16584
With MAGAIASRMSFSSLKRKQPKTFTVRIVTMDAEMEFNCEMKWKGKDLFDLVCRTLGLRETWFFGLQYTIKDTVAWLKMDKKVLDHDVSKEEPVTFHFLAKFYPENAEEELVQEITQHLFFLQVKKQILDEKIYCPPEASVLLASYAVQAKYGDYDPSVHKRGFLAQEELLPKRVINLYQMTPEMWEERITAWYAEHRGRARDEAEMEYLKIAQDLEMYGVNYFAIRNKKGTELLLGVDALGLHIYDPENRLTPKISFPWNEIRNISYSDKEFTIKPLDKKIDVFKFNSSKLRVNKLILQLCIGNHDLFMRRRKADSLEVQQMKAQAREEKARKQMERQRLAREKQMREEAERTRDELERRLLQMKEEATMANEALMRSEETADLLAEKAQITEEEAKLLAQKAAEAEQEMQRIKATAIRTEEEKRLMEQKVLEAEVLALKMAEESERRAKEADQLKQDLQEAREAERRAKQKLLEIATKPTYPPMNPIPAPLPPDIPSFNLIGDSLSFDFKDTDMKRLDMEIEKEKVEYMEKSKHLQEQLNELKTEIEALKLKERETALDILHNENSDRGGSSKHNTIKKLTLQSAKSRVAFFEEL [S518D] the “effect of a mutation on the interaction” value was “decreasing interaction”.

Variants of: B2
Settings: with merl_human NF2, P35240
K144R was tested, and the “effect of a mutation on the interaction” value was “disrupting interaction”.
